Data taken from patent US20040180823A1 (BURNHAM INSTITUTE, published 2004).
Ends that are not written are not given here.

What was measured:
EphB4 Fc fusion protein = target: T1, EphB4 Fc fusion protein; assay: immobilized peptide capturing Eph receptor Fc (methods of Example 2)
T1 construct: Eph receptor Fc fusion
Excerpt: Bound Eph receptors were detected with anti-human Fc antibody conjugated to alkaline phosphatase (AP) (Promega, Madison, Wis.). […] Substrates were 2,2′-azino-bis(3-ethylbenzthiazoline-6-sulfonic acid) for horseradish peroxidase and p-nitrophenyl phosphate for AP.

[1] = target: T2, histidine-tagged mouse EphA2 Fc fusion protein (R&D Systems) (mouse, UniProt Q03145 26-535, limits assumed); assay: SPR (BIAcore 3000), EphA2 Fc coupled to chip, equilibrium binding
T2 construct: Bought; not shown: Fc portion and histidine tag
T2 sequence (Q03145 26-535 limits assumed): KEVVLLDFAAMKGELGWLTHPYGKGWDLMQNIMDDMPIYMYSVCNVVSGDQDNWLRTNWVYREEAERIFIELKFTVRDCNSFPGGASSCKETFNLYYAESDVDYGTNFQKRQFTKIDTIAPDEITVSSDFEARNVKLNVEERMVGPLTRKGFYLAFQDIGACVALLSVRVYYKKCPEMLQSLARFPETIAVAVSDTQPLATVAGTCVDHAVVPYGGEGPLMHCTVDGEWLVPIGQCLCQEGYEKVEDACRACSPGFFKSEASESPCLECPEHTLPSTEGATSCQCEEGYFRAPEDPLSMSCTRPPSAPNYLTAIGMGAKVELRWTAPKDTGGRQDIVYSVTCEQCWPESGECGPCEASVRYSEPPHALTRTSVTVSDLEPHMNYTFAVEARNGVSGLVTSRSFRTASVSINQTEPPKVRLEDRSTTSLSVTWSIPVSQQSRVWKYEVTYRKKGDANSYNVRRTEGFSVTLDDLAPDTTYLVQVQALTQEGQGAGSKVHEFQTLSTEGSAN

T1 sequence (P54761 16-539): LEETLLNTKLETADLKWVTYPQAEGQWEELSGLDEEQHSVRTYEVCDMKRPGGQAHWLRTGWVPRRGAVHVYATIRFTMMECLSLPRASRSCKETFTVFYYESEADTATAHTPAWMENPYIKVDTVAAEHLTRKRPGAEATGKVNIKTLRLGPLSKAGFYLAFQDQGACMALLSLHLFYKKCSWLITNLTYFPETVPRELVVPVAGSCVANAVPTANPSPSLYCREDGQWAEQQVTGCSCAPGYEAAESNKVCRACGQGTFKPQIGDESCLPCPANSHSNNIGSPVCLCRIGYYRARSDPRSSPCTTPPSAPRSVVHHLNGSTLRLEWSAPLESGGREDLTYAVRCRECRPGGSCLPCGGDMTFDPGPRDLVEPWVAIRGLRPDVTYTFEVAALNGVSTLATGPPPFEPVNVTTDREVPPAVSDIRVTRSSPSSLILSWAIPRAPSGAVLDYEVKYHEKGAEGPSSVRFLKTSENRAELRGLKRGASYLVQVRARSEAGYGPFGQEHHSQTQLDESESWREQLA

Row | Binder | fold more EphB4 bound compared to other EphB family receptors (EphB4 Fc fusion protein) | Kd [1]
1 | DALNDWLLFRPWGSGSK (also: biotinylated, position not given here) [DAL synthetic peptide (biotinylated)] | 4 fold | 
2 | SWLAYPGAVSYRGSGSK (also: biotinylated, position not given here) [SWL peptide (synthetic, biotinylated)] |  | 0.678 µM
